Patent US20020199219A1 (UNIVERSITY OF CALIFORNIA SAN DIEGO, published 2002)

Biological target: T1, ABH1 polypeptide (Arabidopsis thaliana, UniProt Q9SIU2 1-848)
T1 construct: Tested in a yeast two-hybrid experiment and expressed in yeast cells; also called Arabidopsis CBP80 homolog
T1 sequence: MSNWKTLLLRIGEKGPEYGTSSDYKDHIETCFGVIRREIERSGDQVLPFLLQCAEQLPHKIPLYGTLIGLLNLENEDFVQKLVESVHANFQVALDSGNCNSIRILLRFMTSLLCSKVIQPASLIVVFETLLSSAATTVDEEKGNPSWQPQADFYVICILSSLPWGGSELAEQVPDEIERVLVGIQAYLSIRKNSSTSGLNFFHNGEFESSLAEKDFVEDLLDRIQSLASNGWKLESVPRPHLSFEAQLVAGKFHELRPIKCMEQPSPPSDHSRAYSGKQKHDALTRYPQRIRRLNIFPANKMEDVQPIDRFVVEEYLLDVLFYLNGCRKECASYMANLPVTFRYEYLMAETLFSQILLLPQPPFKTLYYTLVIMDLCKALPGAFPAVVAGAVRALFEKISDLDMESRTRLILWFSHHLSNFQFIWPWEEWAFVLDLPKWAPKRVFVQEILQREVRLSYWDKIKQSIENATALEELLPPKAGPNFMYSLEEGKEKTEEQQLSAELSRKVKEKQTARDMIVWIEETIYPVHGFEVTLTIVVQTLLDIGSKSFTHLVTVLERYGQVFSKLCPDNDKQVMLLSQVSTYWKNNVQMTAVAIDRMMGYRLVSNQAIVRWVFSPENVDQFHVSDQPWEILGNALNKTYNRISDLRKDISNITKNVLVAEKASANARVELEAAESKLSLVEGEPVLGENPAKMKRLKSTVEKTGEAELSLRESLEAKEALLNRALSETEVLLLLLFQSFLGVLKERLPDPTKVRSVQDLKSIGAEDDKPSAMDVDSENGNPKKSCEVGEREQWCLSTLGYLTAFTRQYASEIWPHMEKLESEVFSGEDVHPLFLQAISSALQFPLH
Assay: yeast two-hybrid

B1: Arabidopsis CBP20 homolog (AtCBP20) (other, UniProt Q9XFD1 1-257, looked up)
chain: MASLFKEQAKLSAYRDRRFSGTQEEFDEALRASTTVYIGNVSFYTTEEQLYELFSRAGEIKKIIMGLDKNTKTPCGFCFVLFYSREDTEDAVKYISGTILDDRPIRVDFDWGFQEGRQWGRGRSGGQVRDEYRTDYDPARGGYGKLVQKELEAQRQLVDYGTGSLGAYPQAAPTNYGNGRRGGGNYGQGGQNRHGRGDYHRKRQRDDDRYGRDNSRRNTDHESRRDTDSDMRPEKNPRFRESGDSDDDGEDDRKRRS
notes: The limits of the construct and the two-hybrid fusion domains are not described
- binding result: binds
